The results in this text go back to patent publication US20200354449A1 (NBE THERAPEUTICS, published 2020).

In assay [1] the target is T1, mouse ROR2-TwinStrep (mouse, UniProt Q9Z138 34-403).
T1 construct: also called mROR2; murine ROR2; not shown: TwinStrep tag
Nature of the assay: ELISA, panel 'Coating: Mouse ROR2' (mouse ROR2-TwinStrep 2 µg/mL), 3-fold dilution series of antibody, HRP anti-human IgG, OD 490 nm. As for the experimental part: (§1) Binding of antibodies to hROR2, mouse ROR2 (mROR2) and cynomolgus ROR2 (cROR2) was evaluated in an ELISA-based assay. For this, ELISA plates were coated with 50 μL of 2 μg/ml, in sodium bicarbonate coating buffer (0.1M Na₂CO₃, 0.1M NaHCO₃, pH 9.6), of: (a) an anti-human Fc (Jackson Immunoresearch, 109-006-098), (b) hROR2-TwinStrep, (c) cynomolgus ROR2-TwinStrep or (d) mouse ROR2-TwinStrep. Following 1-2-days incubation at 4° C., plates were washed with PBS supplemented with 0.05% (v/v) of Tween 20 and blocked with 150 μL of PBS supplemented with 0.05% (v/v) of Tween 20 and 3% of bovine serum albumin (BSA). Thereafter, 3-fold or 4-fold dilutions of purified antibodies starting at 0.5 or 2 μg/ml, respectively, in PBS supplemented with 1% (w/v) bovine serum albumin (BSA) and 0.05% (v/v) of Tween 20 were added. Following 1 h incubation at 37° C., plates were washed with PBS supplemented with 0.05% (v/v) of Tween 20 prior to addition of HRP-conjugated anti-human IgG (Jackson Immunoresearch, 109-036-008). Following further plate washing, plates were developed with 50 μL of Sigmafast OPD Tablet set (Sigma, P9187) and the reaction stopped by addition of 2M sulfuric acid. Plates were read on an ELISA plate reader (OD 490).
On the technique in general: An ELISA detects its analyte on a solid surface through an enzyme-linked reagent.

Assay [2] has as its target T1, mouse ROR2-TwinStrep. Nature of the assay: ELISA, panel 'mouse ROR2' (mouse ROR2-TwinStrep 2 µg/mL coated), 4-fold dilutions of purified antibody from 2000 ng/mL, HRP anti-human IgG, OD 490 nm. As for the experimental part:
as §1

T1 sequence (Q9Z138 34-403 V372M): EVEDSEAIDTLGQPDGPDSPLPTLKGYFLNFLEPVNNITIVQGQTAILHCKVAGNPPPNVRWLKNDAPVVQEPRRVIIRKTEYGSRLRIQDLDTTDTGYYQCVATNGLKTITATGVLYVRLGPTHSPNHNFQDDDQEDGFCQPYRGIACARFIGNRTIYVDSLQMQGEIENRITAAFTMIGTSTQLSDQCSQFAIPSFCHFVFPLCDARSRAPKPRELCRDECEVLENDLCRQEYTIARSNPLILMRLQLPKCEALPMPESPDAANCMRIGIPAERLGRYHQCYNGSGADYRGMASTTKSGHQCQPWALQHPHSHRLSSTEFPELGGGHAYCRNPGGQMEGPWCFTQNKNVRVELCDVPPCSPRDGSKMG

B1: GK-5G12 (antibody, human IgG1)
heavy: not shown
light: EIVLTQSPSSLSASVGDRVTITCRASQGISNYLAWYQQKPGKVPKLLIYAASTLQSGVPSRFSGSGSGTDFTLTISSLQPEDVATYYCQKYNSAPYTFGQGTKLEIKRTVAAPSVFIFPPSDEQLKSGTASVVCLLNNFYPREAKVQWKVDNALQSGNSQESVTEQDSKDSTYSLSSTLTLSKADYEKHKVYACEVTHQGLSSPVTKSFNRGECGGGGGSLPETG
notes: Human IgG1/kappa; the molecule is assigned by the clone name; not shown: Strep tag
For B1, in the assay with mouse ROR2-TwinStrep [1], the binding result was “no binding”.

B2: GK-21D3 (mAb399; mAb417) (antibody, human IgG1)
heavy: not shown
light: DIQLTQSPSSLSASIGDRVTITCRASQGISNYLAWYQQKPGKVPKLLIYAASTLQSGVPSRFSGSGSGTDFTLTISSLQPEDVSTYYCQKYNSAPWTFGQGTKVDIKRTVAAPSVFIFPPSDEQLKSGTASVVCLLNNFYPREAKVQWKVDNALQSGNSQESVTEQDSKDSTYSLSSTLTLSKADYEKHKVYACEVTHQGLSSPVTKSFNRGECGGGGGSLPETG
notes: also called GK-21D3 (mAb417); MK-21D3; not shown: TwinStrep tag
Turning to B2, the binding result in the assay with mouse ROR2-TwinStrep [2] is on record as “no binding (tested: 2000 ng/mL)”.

B3: GK-22G12 (mAb418) (antibody, human IgG1)
heavy: not shown
light: DIVMTQSPSSLSASVGDRVTITCRASQGISNYLAWYQQKPGKVPKLLIYAASTLQSGVPSRFSGSGSGTDFTLTISSLQPEDVSTYYCQKHNRAPWTFGQGTKLEIKRTVAAPSVFIFPPSDEQLKSGTASVVCLLNNFYPREAKVQWKVDNALQSGNSQESVTEQDSKDSTYSLSSTLTLSKADYEKHKVYACEVTHQGLSSPVTKSFNRGECGGGGGLPETG
notes: Human IgG1/kappa; The light chain tag is printed G5LPETG, perhaps a misprint of G5SLPETG; also called MK-22G12; not shown: TwinStrep tag
With B3, in the assay with mouse ROR2-TwinStrep [2], the binding result is reported as “no binding (tested: 2000 ng/mL)”.

B4: GK-6B10 (antibody, human IgG1)
heavy: not shown
light: DIVMTQSPSTLSASVGDRVTITCRASQSIDNWLAWYQQKPGKAPKVLIYKASSLESGVPSRFSGSGSGTEFTLTISSLQPDDFATYYCQQYNSYSYTFGQGTKLEIKRTVAAPSVFIFPPSDEQLKSGTASVVCLLNNFYPREAKVQWKVDNALQSGNSQESVTEQDSKDSTYSLSSTLTLSKADYEKHKVYACEVTHQGLSSPVTKSFNRGECGGGGGSLPETG
notes: as for B1
As for B4, the binding result with mouse ROR2-TwinStrep [1] is “no binding”.

B5: MK-7C3 (antibody, human IgG1)
heavy: not shown
light: AIRMTQSPSTLSASVGDRVTITCRASQTISNWLAWFQQKPGKAPKVLIYKASSLESGVPSRFSGSGSGTEFTLTISSLQPDDFASYYCQQYNSYSYTFGQGTRLEIKRTVAAPSVFIFPPSDEQLKSGTASVVCLLNNFYPREAKVQWKVDNALQSGNSQESVTEQDSKDSTYSLSSTLTLSKADYEKHKVYACEVTHQGLSSPVTKSFNRGECGGGGGSLPETG
notes: as for B1
Consider B5, for which the binding result in the assay with mouse ROR2-TwinStrep [1] is given as “no binding”.

B6: GK-5A1 (mAb271) (antibody, human IgG1)
heavy: not shown
light: EIVLTQSPSTLSASVGDRVTITCRASQSISSWLAWYQQKPGKAPKLLIYKASSLESGVPSRFSGSGSGTEFTLTISSLQPDDFATYYCQQYNSYWTFGQGTKVDIKRTVAAPSVFIFPPSDEQLKSGTASVVCLLNNFYPREAKVQWKVDNALQSGNSQESVTEQDSKDSTYSLSSTLTLSKADYEKHKVYACEVTHQGLSSPVTKSFNRGECGGGGGSLPETG
notes: Human IgG1/kappa; not shown: Strep tag
Consider B6, for which the binding result with mouse ROR2-TwinStrep [1] was “binds”.

B7: MK-3B12 (mAb272) (antibody, human IgG1)
heavy: not shown
light: DIVMTQSPSTLSASVGDRVTITCRASQSISSWLAWYQQKPGKAPKLLIYKASSLESGVPSRFSGSGSGTEFTLTISSLQPDDFATYYCQQYNNYWTFGQGTKVEIKRTVAAPSVFIFPPSDEQLKSGTASVVCLLNNFYPREAKVQWKVDNALQSGNSQESVTEQDSKDSTYSLSSTLTLSKADYEKHKVYACEVTHQGLSSPVTKSFNRGECGGGGGSLPETG
notes: as for B6
B7: in the assay with mouse ROR2-TwinStrep [1], the binding result is “no binding”.

B8: GK-1E5 (mAb270) (antibody, human IgG1)
heavy: not shown
light: DIQLTQSPSTLSASVGDRVTITCRASQSISSWLAWYQQKPGKAPKLLIYKASSLESGVPSRFSGSGSGTEFTLTISSLQPDDFATYYCQQYNNYWTFGQGTKVEIKRTVAAPSVFIFPPSDEQLKSGTASVVCLLNNFYPREAKVQWKVDNALQSGNSQESVTEQDSKDSTYSLSSTLTLSKADYEKHKVYACEVTHQGLSSPVTKSFNRGECGGGGGSLPETG
notes: as for B6
Turning to B8, the binding result with mouse ROR2-TwinStrep [1] was “no binding”.

B9: GK-2G8 (antibody, human IgG1)
heavy: not shown
light: EIVMTQSPSTLSASVGDRVTITCRASQSISSWLAWYQQKPGKAPKLLIYKASSLESGVPSRFSGSGSGTEFTLTISSLQPDDFATYYCQQYNNYWTFGQGTKVDIKRTVAAPSVFIFPPSDEQLKSGTASVVCLLNNFYPREAKVQWKVDNALQSGNSQESVTEQDSKDSTYSLSSTLTLSKADYEKHKVYACEVTHQGLSSPVTKSFNRGECGGGGGSLPETG
notes: as for B1
Regarding B9, in the assay with mouse ROR2-TwinStrep [1], the binding result was “no binding”.
